Data as given in paper PMC8749442 (iScience, 2021).

Assays:
[1] = molecular target: the molecule itself; assay: cryo-EM structure
[2] = molecular target: GroEL (wild-type bacterial chaperonin) (UniProt P0A6F5 1-548); assay: cryo-EM structure
GroEL (wild-type bacterial chaperonin), sequence (P0A6F5 whole entry): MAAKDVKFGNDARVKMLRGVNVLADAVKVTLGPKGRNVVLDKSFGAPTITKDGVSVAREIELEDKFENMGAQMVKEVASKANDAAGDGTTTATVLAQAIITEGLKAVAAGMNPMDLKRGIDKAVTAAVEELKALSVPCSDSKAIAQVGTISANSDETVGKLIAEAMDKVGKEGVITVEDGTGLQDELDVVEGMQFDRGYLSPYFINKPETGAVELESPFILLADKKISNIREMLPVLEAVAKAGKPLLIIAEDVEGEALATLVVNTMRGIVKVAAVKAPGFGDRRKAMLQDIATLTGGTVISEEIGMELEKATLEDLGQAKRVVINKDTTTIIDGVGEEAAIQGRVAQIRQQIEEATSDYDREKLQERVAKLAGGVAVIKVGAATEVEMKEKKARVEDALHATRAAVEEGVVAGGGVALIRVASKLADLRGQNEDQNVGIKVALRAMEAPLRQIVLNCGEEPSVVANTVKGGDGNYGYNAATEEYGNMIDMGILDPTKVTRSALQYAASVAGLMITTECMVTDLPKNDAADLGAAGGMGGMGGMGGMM

B1: GroES (co-chaperone of GroEL) (natural protein)
chain: MNIRPLHDRVIVKRKEVETKSAGGIVLTGSAAAKSTRGEVLAVGNGRILENGEVKPLDVKVGDIVIFNDGYGVKSEKIDNEEVLIMSESDILAIVEA
B1: binds [1]; binds [2].
